Experimental data from patent publication EP4692367A1.

Legend:
[1] = target: LgBiT-p62 (Homo sapiens (Human)) (UniProt Q13501); assay: NanoBiT split-luciferase complementation in HeLa cells co-transfected with pLgBiT-p62 and pSmBiT-DDX5; 10 uM 8-nitro-cGMP for 24 h; luminescence 10 min after start of measurement
[2] = target: LgBiT-p62 (Homo sapiens (Human)) (UniProt Q13501); assay: NanoBiT split-luciferase complementation in HeLa cells co-transfected with pLgBiT-p62 and pSmBiT-DDX5; 10 uM AUTAC4-2G for 12 h; luminescence 10 min after start of measurement
[3] = target: LgBiT-p62 (Homo sapiens (Human)) (UniProt Q13501); assay: NanoBiT split-luciferase complementation in HeLa cells co-transfected with pLgBiT-p62 and pSmBiT-DDX5; each of compounds 5 to 33 at 10 uM for 24 h; luminescence 10 min after start of measurement
[4] = target: LgBiT-p62 (Homo sapiens (Human)) (UniProt Q13501); assay: NanoBiT split-luciferase complementation in HeLa cells co-transfected with pLgBiT-p62 and pSmBiT-DDX5; 10 uM FBnG for 24 h; luminescence 10 min after start of measurement
[5] = target: LgBiT-p62 (Homo sapiens (Human)) (UniProt Q13501); assay: NanoBiT split-luciferase complementation in HeLa cells co-transfected with pLgBiT-p62 and pSmBiT-DDX5; 10 uM AUTAC2-2G for 12 h; luminescence 10 min after start of measurement

Chain of SmBiT-DDX5 (P17844 whole entry): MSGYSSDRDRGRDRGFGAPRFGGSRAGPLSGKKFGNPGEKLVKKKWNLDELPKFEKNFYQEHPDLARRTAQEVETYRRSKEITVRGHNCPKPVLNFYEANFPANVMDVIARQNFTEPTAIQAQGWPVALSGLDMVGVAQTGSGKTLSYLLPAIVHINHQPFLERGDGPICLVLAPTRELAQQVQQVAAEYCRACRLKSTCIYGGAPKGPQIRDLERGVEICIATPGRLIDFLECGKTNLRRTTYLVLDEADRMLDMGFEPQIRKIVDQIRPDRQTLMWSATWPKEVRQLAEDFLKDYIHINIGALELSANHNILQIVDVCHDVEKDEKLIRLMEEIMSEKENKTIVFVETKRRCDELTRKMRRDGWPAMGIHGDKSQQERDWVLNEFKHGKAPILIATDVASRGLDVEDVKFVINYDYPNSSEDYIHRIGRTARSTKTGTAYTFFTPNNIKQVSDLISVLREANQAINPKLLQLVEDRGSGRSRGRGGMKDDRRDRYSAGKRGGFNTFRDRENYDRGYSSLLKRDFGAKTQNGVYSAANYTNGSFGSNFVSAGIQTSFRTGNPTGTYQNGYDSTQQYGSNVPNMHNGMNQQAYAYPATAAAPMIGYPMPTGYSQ

emission intensity relative to cells treated with DMSO (times (fold over DMSO-treated cells)) [1]: > 1000
emission intensity relative to cells treated with DMSO (times (fold over DMSO-treated cells)) [2]: > 1000
emission intensity relative to cells treated with DMSO (times (fold over DMSO-treated cells)) [3]: > 1000
emission intensity relative to cells treated with DMSO (times (fold over DMSO-treated cells)) [4]: > 1000
emission intensity relative to cells treated with DMSO (times (fold over DMSO-treated cells)) [5]: > 1000
Substance: SmBiT-DDX5 (from UniProt P17844 1-614) (enzyme)
